Key:
[1] = target: T1, mouse IgG1 Fc-fused SARS-CoV-2 RBD (SARS-CoV-2, UniProt P0DTC2); assay: BLI; details: both partners purified
[2] = target: T1, mouse IgG1 Fc-fused SARS-CoV-2 RBD; assay: BLI; details: both partners purified; remark: listed apart in the source

Binder	Kd [1] [nM]	koff [1] [s⁻¹]	kon [1] [M⁻¹ s⁻¹]	Kd [2] [nM]	koff [2] [s⁻¹]	kon [2] [M⁻¹ s⁻¹]
humVHH/WT-Fc (Fc fusion, also called VHH72_h1-GS-hIgG1hinge-hIgG1Fc; construct 4) EVQLVESGGGLVQPGGSLRLSCAASGRTFSEYAMGWFRQAPGKEREFVATISWSGGSTYYTDSVKGRFTISRDNAKNTVYLQMNSLRPEDTAVYYCAAAGLGTVVSEWDYDYDYWGQGTLVTVSS	0.1	0.00019	1.9e+06	–	–	–
humVHH_S56A/LALAPG-Fc/Gen2 (Fc fusion) DVQLVESGGGLVQPGGSLRLSCAASGRTFSEYAMGWFRQAPGKEREFVATISWSGGATYYTDSVKGRFTISRDNAKNTVYLQMNSLRPEDTAVYYCAAAGLGTVVSEWDYDYDYWGQGTLVTVSS	–	–	–	0.0408	6.16e-05	1.52e+06
(humVHH)2/WT-Fc (Fc fusion) EVQLVESGGGLVQPGGSLRLSCAASGRTFSEYAMGWFRQAPGKEREFVATISWSGGSTYYTDSVKGRFTISRDNAKNTVYLQMNSLRPEDTAVYYCAAAGLGTVVSEWDYDYDYWGQGTLVTVSSGGGGSGGGGSGGGGSEVQLVESGGGLVQPGGSLRLSCAASGRTFSEYAMGWFRQAPGKEREFVATISWSGGSTYYTDSVKGRFTISRDNAKNTVYLQMNSLRPEDTAVYYCAAAGLGTVVSEWDYDYDYWGQGTLVTVSS	–	–	–	< 0.001	< 1e-07	2.65e+06
(humVHH_S56A)2/LALAPG-Fc/Gen2 (Fc fusion) DVQLVESGGGLVQPGGSLRLSCAASGRTFSEYAMGWFRQAPGKEREFVATISWSGGATYYTDSVKGRFTISRDNAKNTVYLQMNSLRPEDTAVYYCAAAGLGTVVSEWDYDYDYWGQGTLVTVSSGGGGSGGGGSGGGGSDVQLVESGGGLVQPGGSLRLSCAASGRTFSEYAMGWFRQAPGKEREFVATISWSGGATYYTDSVKGRFTISRDNAKNTVYLQMNSLRPEDTAVYYCAAAGLGTVVSEWDYDYDYWGQGTLVTVSS	–	–	–	< 0.001	< 1e-07	2.48e+06

— PMC9924070 (Science Translational Medicine, 2021)
